Target: HLA-A2 (recombinant, on Raji-HLA-A2 target cells) (human)
Assay: cell-based or functional assay

B1: HLA-A2 iCAR (inhibitory chimeric antigen receptor; HLA-A2 scFv from hybridoma BB7.2 fused to PD-1 hinge, transmembrane and intracellular domains) (receptor)
chain: EQKLISEEDLQVQLQQSGPELVKPGASVKMSCKASGYTFTSYHIQWVKQRPGQGLEWIGWIYPGDGSTQYNEKFKGKTTLTADKSSSTAYMLLSSLTSEDSAIYFCAREGTYYAMDYWGQGTSVTVSSGGGGSGGGGSGGGGSDVLMTQTPLSLPVSLGDQVSISCRSSQSIVHSNGNTYLEWYLQKPGQSPKLLIYKVSNRFSGVPDRFSGSGSGTDFTLKISRVEAEDLGVYYCFQGSHVPRTFGGGTKLEIKTERRAEVPTAHPSPSPRPAGQFQTLVVGVVGGLLGSLVLLVWVLAVICSRAARGTIGARRTGQPLKEDPSAVPVFSVDYGELDFQWREKTPEPPVPCVPEQTEYATIVFPSGMGTSSPARRGSADGPRSAQPLRPEDGHCSWPL
In the case of B1, the “inhibition of effector T cells expressing the two CARs at a 1:1 ratio (CD107a figure series)” value is reported as 50% and the “percent inhibition of CD107a expression on CD8 T cells; 100*(1-(CD107a with Raji-A2/CD107a with Raji)), aCAR to iCAR ratio 1:5” value is reported as 84%.
